Experimental data taken from PMC6152903 (Cell reports, 2018).

Key:
[1] = target: the molecule itself; assay: SDS-PAGE without reducing reagent
co-IP = target: the molecule itself; assay: co-IP

| Protein | stoichiometry N [1] | stoichiometry N (co-IP) |
| --- | --- | --- |
| endogenous ZMYND8 (natural protein) MDISTRSKDPGSAERTAQKRKFPSPPHSSNGHSPQDTSTSPIKKKKKPGLLNSNNKEQSELRHGPFYYMKQPLTTDPVDVVPQDGRNDFYCWVCHREGQVLCCELCPRVYHAKCLRLTSEPEGDWFCPECEKITVAECIETQSKAMTMLTIEQLSYLLKFAIQKMKQPGTDAFQKPVPLEQHPDYAEYIFHPMDLCTLEKNAKKKMYGCTEAFLADAKWILHNCIIYNGGNHKLTQIAKVVIKICEHEMNEIEVCPECYLAACQKRDNWFCEPCSNPHPLVWAKLKGFPFWPAKALRDKDGQVDARFFGQHDRAWVPINNCYLMSKEIPFSVKKTKSIFNSAMQEMEVYVENIRRKFGVFNYSPFRTPYTPNSQYQMLLDPTNPSAGTAKIDKQEKVKLNFDMTASPKILMSKPVLSGGTGRRISLSDMPRSPMSTNSSVHTGSDVEQDAEKKATSSHFSASEESMDFLDKSTASPASTKTGQAGSLSGSPKPFSPQLSAPITTKTDKTSTTGSILNLNLDRSKAEMDLKELSESVQQQSTPVPLISPKRQIRSRFQLNLDKTIESCKAQLGINEISEDVYTAVEHSDSEDSEKSDSSDSEYISDDEQKSKNEPEDTEDKEGCQMDKEPSAVKKKPKPTNPVEIKEELKSTSPASEKADPGAVKDKASPEPEKDFSEKAKPSPHPIKDKLKGKDETDSPTVHLGLDSDSESELVIDLGEDHSGREGRKNKKEPKEPSPKQDVVGKTPPSTTVGSHSPPETPVLTRSSAQTSAAGATATTSTSSTVTVTAPAPAATGSPVKKQRPLLPKETAPAVQRVVWNSSSKFQTSSQKWHMQKMQRQQQQQQQQNQQQQPQSSQGTRYQTRQAVKAVQQKEITQSPSTSTITLVTSTQSSPLVTSSGSMSTLVSSVNADLPIATASADVAADIAKYTSKMMDAIKGTMTEIYNDLSKNTTGSTIAEIRRLRIEIEKLQWLHQQELSEMKHNLELTMAEMRQSLEQERDRLIAEVKKQLELEKQQAVDETKKKQWCANCKKEAIFYCCWNTSYCDYPCQQAHWPEHMKSCTQSATAPQQEADAEVNTETLNKSSQGSSSSTQSAPSETASASKEKETSAEKSKESGSTLDLSGSRETPSSILLGSNQGSDHSRSNKSSWSSSDEKRGSTRSDHNTSTSTKSLLPKESRLDTFWD | 2 |  |
| FLAG-ZMYND8 (Sf9) (natural protein) MHPQSLAEEEIKTEQEVVEGMDISTRSKDPGSAERTAQKRKFPSPPHSSNGHSPQDTSTSPIKKKKKPGLLNSNNKEQSELRHGPFYYMKQPLTTDPVDVVPQDGRNDFYCWVCHREGQVLCCELCPRVYHAKCLRLTSEPEGDWFCPECEKITVAECIETQSKAMTMLTIEQLSYLLKFAIQKMKQPGTDAFQKPVPLEQHPDYAEYIFHPMDLCTLEKNAKKKMYGCTEAFLADAKWILHNCIIYNGGNHKLTQIAKVVIKICEHEMNEIEVCPECYLAACQKRDNWFCEPCSNPHPLVWAKLKGFPFWPAKALRDKDGQVDARFFGQHDRAWVPINNCYLMSKEIPFSVKKTKSIFNSAMQEMEVYVENIRRKFGVFNYSPFRTPYTPNSQYQMLLDPTNPSAGTAKIDKQEKVKLNFDMTASPKILMSKPVLSGGTGRRISLSDMPRSPMSTNSSVHTGSDVEQDAEKKATSSHFSASEESMDFLDKSTASPASTKTGQAGSLSGSPKPFSPQLSAPITTKTDKTSTTGSILNLNLDRSKAEMDLKELSESVQQQSTPVPLISPKRQIRSRFQLNLDKTIESCKAQLGINEISEDVYTAVEHSDSEDSEKSDSSDSEYISDDEQKSKNEPEDTEDKEGCQMDKEPSAVKKKPKPTNPVEIKEELKSTSPASEKADPGAVKDKASPEPEKDFSEKAKPSPHPIKDKLKGKDETDSPTVHLGLDSDSESELVIDLGEDHSGREGRKNKKEPKEPSPKQDVVGKTPPSTTVGSHSPPETPVLTRSSAQTSAAGATATTSTSSTVTVTAPAPAATGSPVKKQRPLLPKETAPAVQRVVWNSSSKFQTSSQKWHMQKMQRQQQQQQQQNQQQQPQSSQGTRYQTRQAVKAVQQKEITQSPSTSTITLVTSTQSSPLVTSSGSMSTLVSSVNADLPIATASADVAADIAKYTSKMMDAIKGTMTEIYNDLSKNTTGSTIAEIRRLRIEIEKLQWLHQQELSEMKHNLELTMAEMRQSLEQERDRLIAEVKKQLELEKQQAVDETKKKQWCANCKKEAIFYCCWNTSYCDYPCQQAHWPEHMKSCTQSATAPQQEADAEVNTETLNKSSQGSSSSTQSAPSETASASKEKETSAEKSKESGSTLDLSGSRETPSSILLGSNQGSDHSRSNKSSWSSSDEKRGSTRSDHNTSTSTKSLLPKESRLDTFWD |  | 2 |
